What is called EC50 is the concentration needed to bring the measured effect to its halfway point. As a reminder, the kon is a measure of how fast the partners come together. For orientation: koff means a measure of how fast the partners let go of each other.

Assay [1] has as its target T1, human AXL expressed on the cell surface of tumor cell lines (human, UniProt P30530 26-894).
T1 construct: whole, on cells; also called cell surface-expressed AXL; cell-based AXL
T1 sequence (looked up): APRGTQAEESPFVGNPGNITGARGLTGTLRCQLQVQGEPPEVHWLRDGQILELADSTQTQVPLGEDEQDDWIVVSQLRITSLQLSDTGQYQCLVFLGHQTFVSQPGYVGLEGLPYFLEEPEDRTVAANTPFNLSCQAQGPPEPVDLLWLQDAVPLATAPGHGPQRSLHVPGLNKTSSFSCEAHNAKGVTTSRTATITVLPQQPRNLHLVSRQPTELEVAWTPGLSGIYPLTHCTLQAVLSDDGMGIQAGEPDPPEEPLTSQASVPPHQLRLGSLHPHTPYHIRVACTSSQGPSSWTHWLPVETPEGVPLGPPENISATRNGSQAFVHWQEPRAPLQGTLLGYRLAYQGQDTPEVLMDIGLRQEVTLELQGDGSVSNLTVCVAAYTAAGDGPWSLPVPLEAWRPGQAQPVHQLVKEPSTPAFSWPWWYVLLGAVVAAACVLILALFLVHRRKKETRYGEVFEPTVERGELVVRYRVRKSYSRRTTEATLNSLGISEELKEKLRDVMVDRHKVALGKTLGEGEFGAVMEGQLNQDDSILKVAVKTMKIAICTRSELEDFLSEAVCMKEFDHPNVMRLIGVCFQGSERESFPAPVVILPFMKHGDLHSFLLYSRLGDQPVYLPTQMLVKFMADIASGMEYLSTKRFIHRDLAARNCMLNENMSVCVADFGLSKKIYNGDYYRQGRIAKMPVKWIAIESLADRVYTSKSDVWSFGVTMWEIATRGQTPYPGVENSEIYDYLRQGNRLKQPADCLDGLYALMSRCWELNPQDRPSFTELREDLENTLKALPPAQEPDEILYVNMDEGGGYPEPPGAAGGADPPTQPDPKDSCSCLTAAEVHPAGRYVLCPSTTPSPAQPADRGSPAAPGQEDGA
Description: FACS on MDA-MB-231 luciferase cells, apparent Kd, human Fc format. How it is done:
(§1) FACS binding assay. Adherent cells were dissociated with non-enzymatic Sigma Cell Dissociation Solution (Cat. No. C5789). Cells suspensions were added to polypropylene, V-bottom 96-well plates and incubated for 2 hours on ice with primary antibodies at concentrations ranging from 100 nM to 0.001 nM or at a single dose of 100 nM (for the non-specific control). After incubation and washes, cells were incubated with fluorescently labeled secondary antibody (Alexa Fluor® 488 anti-human IgG from Jackson Cat. No 709-546-098) for 1 hour on ice, then washed. Cell viability was determined using Fixable viability dye 450 (20 min on ice). Stained cells were fixed in 1% formaldehyde at 4° C. and stored at 4° C. until acquisition which was performed the next day.
(§2) Binding of recombinant chimeric Abs to three cell lines was assessed by FACS as described above. The apparent Bmax and Kd determination is shown below in Table 14.

Assay [2] has as its target T1, human AXL expressed on the cell surface …. Description: FACS on SKOV3 cells, apparent Kd. On the procedure: as §1, §2
Assay [3] has as its target T2, recombinant human AXL extracellular domain, C-terminally His8-tagged (rhAXL-ECD) (human, UniProt P30530 26-451).
T2 construct: Made in CHO cells; also called (rh)AXL-ECD His8; human AXL ECD
T2 sequence: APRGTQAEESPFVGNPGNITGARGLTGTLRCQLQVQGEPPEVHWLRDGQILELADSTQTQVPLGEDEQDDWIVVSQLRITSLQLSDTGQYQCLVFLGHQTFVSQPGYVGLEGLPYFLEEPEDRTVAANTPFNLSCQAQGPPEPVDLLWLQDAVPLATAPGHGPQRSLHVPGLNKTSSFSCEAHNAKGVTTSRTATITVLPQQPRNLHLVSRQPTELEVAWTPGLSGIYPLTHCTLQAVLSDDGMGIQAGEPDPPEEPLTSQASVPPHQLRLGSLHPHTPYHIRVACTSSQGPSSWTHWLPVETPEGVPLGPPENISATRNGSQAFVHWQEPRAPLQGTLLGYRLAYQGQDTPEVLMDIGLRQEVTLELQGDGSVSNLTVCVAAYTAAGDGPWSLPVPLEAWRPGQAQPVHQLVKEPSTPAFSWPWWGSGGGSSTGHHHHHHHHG
Description: ELISA on coated AXL ECD (100 ng/well), HRP-protein A. How it is done: ELISA. ELISAs against human, cyno and mouse AXL ECDs were conducted by immobilizing 100 ng of each protein in wells of Nunc MaxiSorp microplates overnight. Human AXL (aa 1-451) and cyno AXL (aa 1-449) were produced recombinantly as described in Example 10. Mouse AXL was purchased from Sino (cat. 51026-M08H). The next day, plates were blocked with 5% (w/v) dried milk in PBS. Murine mAbs (either hybridoma- or recombinantly-produced) or VHH-Fcs were diluted in PBS containing 1% BSA and 0.1% Tween-20 and added to wells for 2 hours at room temperature. Wells were washed 5× with PBS containing 0.1% Tween-20, then HRP-labeled protein A (diluted 1:1000 in PBS containing 1% BSA and 0.1% Tween™-20) was added to wells for 1 hour at room temperature. Wells were washed again 5× with PBS/0.1% Tween-20 and developed using TMB substrate. Absorbance was measured at 450 nm. As a positive control for mouse AXL binding, a commercial anti-mouse AXL mAb (clone 175128, R&D Systems MAB8541, rat IgG2A) was used and detected with donkey […] secondary antibody.
Background: An ELISA detects its analyte on a solid surface through an enzyme-linked reagent.

For assay [4], the target named is T2, recombinant human AXL extracellular …. Description: SPR Biacore T200, mAb captured on anti-Fc, AXL ECD flowed, single-cycle kinetics. How it is done:
(§3) Surface plasmon resonance. For murine mAbs, binding to human and cynomolgus AXL ECD was assessed using a Biacore T200 instrument. Briefly, either anti-mouse or anti-human Fc antibody was immobilized on a research-grade CM5 series S sensor chip using amine coupling in acetate buffer. Murine or recombinant chimeric murine-human mAbs (mouse VH/VL; human constant regions) were captured, then recombinant human or cyno AXL ECD was flowed over the surface at different concentration ranges (0.1-500 nM) depending on the antibody. The running buffer was PBS/Tween-20 and the flow rate 100 uL/min. All binding studies were performed at 25° C. Surfaces were regenerated using 10 mM glycine, pH 1.5.

For assay [5], the target named is T3, recombinant cynomolgus AXL extracellular domain (cynomolgus).
T3 construct: range 1-449; also called Cyno AXL; cyno AXL ECD
The description is as above. On the procedure:
as §3

B1: NRC-sdAb001-Fc (VHH-human IgG1 Fc fusion) (Fc fusion)
chain: QVKLEESGGGLVQAGGSLRLSCTASASISSFDIMGWYRQAPGKQRELVAAITTLDIANYRDSVKGRFTISRDNAKNTVYLQMDSLKPEDTARYHCAAFQSDQNYWGQGTQVTVSS
notes: VHH fused N-terminally to human IgG1 Fc, made in HEK293 cells; also called NRC-sdAb0001-Fc; NRC-sdAb001-hIgG1; not shown: human IgG1 Fc
Take B1: the Kd in assay [1] was 0.233 nM.

B2: hFC-F107-10G1 (antibody, human IgG1, kappa, V domains shown)
VH: EVNLVESGGGVVKPGASLKLSCEASGFTFSNYGMSWVRQTSDKRLEWVASISGGGGRTYYLDNVKGRFIISRENAKNTLYLQMSSLKSEDTALFYCARGARASYFAMDYWGQGSSVTVSS
VL: VIVMTQSHKFMSTSVGDRVSITCKASQDVTTAVAWYQQKPGQSPKLLIYWASTRHTGVPDRFTGSGSGTDYSLTISNVQTEDLAFYYCQQHFTTPLTFGAGTKLELKR
notes: Chimeric mAb, human IgG1 / human kappa constant regions; also called mAb F107-10G1
Consider B2, for which the Kd in assay [2] came to 0.0608 nM. Moreover, the EC50 in assay [3] amounted to 2 nM. For the same molecule, in assay [4], the Kd is 0.5 nM and the association rate constant (kon) was found to be 1.1e+06 M⁻¹ s⁻¹. Moreover, in assay [5], the Kd turned out to be 0.5 nM, the off-rate constant (koff) stood at 0.00043 s⁻¹ and the association rate constant (kon) worked out at 820000 M⁻¹ s⁻¹.

The values are drawn from patent US20240076389A1 (NATIONAL RESEARCH COUNCIL OF CANADA, published 2024).
